In publication PMC3258154:

Molecular target: eIF3 from HeLa cells (human (endogenous in HeLa)) (UniProt Q14152)
Assay: native gel or EMSA

“eIF2 from HeLa cells (from UniProt P05198 1-315; P20042 1-333) (complex)” was tested, and the concentration below which the complex starts to dissociate was 200 to 300 nM.
